The values that follow come from IntAct's records for PubMed 19909339.

B1: Olfactory receptor 2AG1 (Homo sapiens), Q9H205 (parent)
chain: MELWNFTLGSGFILVGILNDSGSPELLCATITILYLLALISNGLLLLAITMEARLHMPMYLLLGQLSLMDLLFTSVVTPKALADFLRRENTISFGGCALQMFLALTMGGAEDLLLAFMAYDRYVAICHPLTYMTLMSSRACWLMVATSWILASLSALIYTVYTMHYPFCRAQEIRHLLCEIPHLLKVACADTSRYELMVYVMGVTFLIPSLAAILASYTQILLTVLHMPSNEGRKKALVTCSSHLTVVGMFYGAATFMYVLPSSFHSTRQDNIISVFYTIVTPALNPLIYSLRNKEVMRALRRVLGKYMLPAHSTL

Variants of B1 are the subject of this assay. The conditions noted are these: with mpdz_human MPDZ.
S314W: the “effect of a mutation on the interaction” value is “disrupting interaction”.

On to L316W, for which the “effect of a mutation on the interaction” value is “disrupting interaction”.
